Data as given in patent publication US20250051476A1 (ABDERA THERAPEUTICS, published 2025).

T1: DLL3 on cells (SHP-77, NCI-H82, HEK-DLL3, membrane proteome array cells) (human, UniProt Q9NYJ7 27-618)
T1 construct: whole, on cells; also called hDLL3
T1 sequence (looked up): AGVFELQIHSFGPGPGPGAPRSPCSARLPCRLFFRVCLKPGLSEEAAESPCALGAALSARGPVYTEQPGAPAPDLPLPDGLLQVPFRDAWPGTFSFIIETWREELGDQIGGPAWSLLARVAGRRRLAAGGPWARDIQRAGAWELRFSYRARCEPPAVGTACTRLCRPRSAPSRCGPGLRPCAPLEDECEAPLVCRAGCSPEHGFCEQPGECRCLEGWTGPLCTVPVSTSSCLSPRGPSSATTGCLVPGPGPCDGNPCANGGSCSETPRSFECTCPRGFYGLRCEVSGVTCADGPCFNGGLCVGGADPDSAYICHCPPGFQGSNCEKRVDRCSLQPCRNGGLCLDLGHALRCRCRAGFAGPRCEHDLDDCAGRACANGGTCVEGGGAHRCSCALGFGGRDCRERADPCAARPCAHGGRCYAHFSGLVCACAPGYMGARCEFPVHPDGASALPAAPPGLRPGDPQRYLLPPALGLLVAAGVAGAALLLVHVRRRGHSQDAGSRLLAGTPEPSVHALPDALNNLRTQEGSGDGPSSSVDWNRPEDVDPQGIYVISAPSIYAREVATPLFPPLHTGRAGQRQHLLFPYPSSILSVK

T2: human DLL3 (human, UniProt Q9NYJ7 27-492, limits assumed)
T2 construct: also called hDLL3; Delta-like protein 3
T2 sequence (looked up): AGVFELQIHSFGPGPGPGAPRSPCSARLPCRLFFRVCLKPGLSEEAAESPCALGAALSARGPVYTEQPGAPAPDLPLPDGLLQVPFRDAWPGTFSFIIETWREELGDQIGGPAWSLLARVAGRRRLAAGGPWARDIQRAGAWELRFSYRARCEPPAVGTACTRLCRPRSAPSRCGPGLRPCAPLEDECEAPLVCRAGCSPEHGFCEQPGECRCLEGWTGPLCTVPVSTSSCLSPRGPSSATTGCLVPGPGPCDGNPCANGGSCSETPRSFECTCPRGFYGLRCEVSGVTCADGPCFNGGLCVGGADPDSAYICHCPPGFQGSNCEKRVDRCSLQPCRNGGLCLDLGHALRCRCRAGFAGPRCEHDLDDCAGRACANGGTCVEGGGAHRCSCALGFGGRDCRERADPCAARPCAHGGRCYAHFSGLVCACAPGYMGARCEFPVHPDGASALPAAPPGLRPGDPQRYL

T3: mouse DLL3 (mouse, UniProt O88516 25-477, limits assumed)
T3 construct: also called mDLL3; murine DLL3
T3 sequence (looked up): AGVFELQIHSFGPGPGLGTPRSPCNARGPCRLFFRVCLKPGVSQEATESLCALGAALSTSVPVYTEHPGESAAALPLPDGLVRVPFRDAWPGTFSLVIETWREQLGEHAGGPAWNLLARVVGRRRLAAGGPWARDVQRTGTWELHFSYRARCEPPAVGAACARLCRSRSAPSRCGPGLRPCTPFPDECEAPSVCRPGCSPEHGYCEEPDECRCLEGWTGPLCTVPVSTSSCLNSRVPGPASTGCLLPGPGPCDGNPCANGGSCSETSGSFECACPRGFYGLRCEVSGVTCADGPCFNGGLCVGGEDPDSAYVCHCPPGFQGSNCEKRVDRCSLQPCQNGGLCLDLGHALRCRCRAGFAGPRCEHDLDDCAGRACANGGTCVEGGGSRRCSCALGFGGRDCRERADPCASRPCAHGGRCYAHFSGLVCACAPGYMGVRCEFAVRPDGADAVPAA

B1: 126 (Fc fusion)
chain: QVQLVESGGGMVQPGGSLRLSCAASGITFSMYSMSWYRQPPGKQRELVAATTTFGSTNYADSVKGRFTISRDNAKNTVYLQMNSLKPEDTAVYLCNARFTSEEYWGQGTQVTVSSEPKSSDKTHTCPPCPAPEAEGAPSVFLFPPKPKDTLMISRTPEVTCVVVDVSHEDPEVKFNWYVDGVEVHNAKTKPREEQYNSTYRVVSVLTVLHQDWLNGKEYKCKVSNKALPSSIEKTISKAKGQPREPQVYTLPPSREEMTKNQVSLTCLVKGFYPSDIAVEWESNGQPENNYKTTPPVLDSDGSFFLYSKLTVDKSRWQQGNVFSCSVMHEALHNQYTQKSLSLSPG
notes: Parental camelid VHH-Fc
B2: 126 Conjugate (Fc fusion)
chain: QVQLVESGGGMVQPGGSLRLSCAASGITFSMYSMSWYRQPPGKQRELVAATTTFGSTNYADSVKGRFTISRDNAKNTVYLQMNSLKPEDTAVYLCNARFTSEEYWGQGTQVTVSSEPKSSDKTHTCPPCPAPEAEGAPSVFLFPPKPKDTLMISRTPEVTCVVVDVSHEDPEVKFNWYVDGVEVHNAKTKPREEQYNSTYRVVSVLTVLHQDWLNGKEYKCKVSNKALPSSIEKTISKAKGQPREPQVYTLPPSREEMTKNQVSLTCLVKGFYPSDIAVEWESNGQPENNYKTTPPVLDSDGSFFLYSKLTVDKSRWQQGNVFSCSVMHEALHNQYTQKSLSLSPG
modifications: conjugated to p-SCN-Bn-DOTA, chelator-antibody ratio of 3-5 (lysine-based conjugation)
B3: 126_zu1 (Fc fusion)
chain: QVQLVESGGGLVQPGGSLRLSCAASGITFSMYSMSWFRQAPGQGLEAVAATTTFGSTNYADSVKGRFTISRDNSKNTLYLQMNSLRAEDTAVYYCAARFTSEEYWGQGTLVTVSSEPKSSDKTHTCPPCPAPEAEGAPSVFLFPPKPKDTLMISRTPEVTCVVVDVSHEDPEVKFNWYVDGVEVHNAKTKPREEQYNSTYRVVSVLTVLHQDWLNGKEYKCKVSNKALPSSIEKTISKAKGQPREPQVYTLPPSREEMTKNQVSLTCLVKGFYPSDIAVEWESNGQPENNYKTTPPVLDSDGSFFLYSKLTVDKSRWQQGNVFSCSVMHEALHNQYTQKSLSLSPG
notes: Humanized VHH-Fc
B4: 186 (Fc fusion)
chain: QVQVVESGGGLVQPGGSLTLSCAASGFDFSTYTVNWYRQAPGKEREKVARISSTGTTTNYANSAKGRFTLSRDNAKNRVYLQMNNLKPEDTAVYFCNFERFDSNYWGQGTQVTVSSEPKSSDKTHTCPPCPAPEAEGAPSVFLFPPKPKDTLMISRTPEVTCVVVDVSHEDPEVKFNWYVDGVEVHNAKTKPREEQYNSTYRVVSVLTVLHQDWLNGKEYKCKVSNKALPSSIEKTISKAKGQPREPQVYTLPPSREEMTKNQVSLTCLVKGFYPSDIAVEWESNGQPENNYKTTPPVLDSDGSFFLYSKLTVDKSRWQQGNVFSCSVMHEALHNQYTQKSLSLSPG
notes: Parental camelid VHH-Fc
B5: 186_zu1 (Fc fusion)
chain: QVQLVESGGGLVQPGGSLRLSCAASGFDFSTYTVNWFRQAPGQGLEAVARISSTGTTTNYANSAKGRFTISRDNSKNTLYLQMNSLRAEDTAVYYCAAERFDSNYWGQGTLVTVSSEPKSSDKTHTCPPCPAPEAEGAPSVFLFPPKPKDTLMISRTPEVTCVVVDVSHEDPEVKFNWYVDGVEVHNAKTKPREEQYNSTYRVVSVLTVLHQDWLNGKEYKCKVSNKALPSSIEKTISKAKGQPREPQVYTLPPSREEMTKNQVSLTCLVKGFYPSDIAVEWESNGQPENNYKTTPPVLDSDGSFFLYSKLTVDKSRWQQGNVFSCSVMHEALHNQYTQKSLSLSPG
notes: Humanized VHH-Fc
B6: 186_zu2 conjugated to p-SCN-Bn-DOTA (Fc fusion)
chain: QVQLVESGGGLVQPGGSLRLSCAASGFDFSTYTVNWFRQAPGQGLEKVARISSTGTTTNYANSAKGRFTISRDNSKNTLYLQMNSLRAEDTAVYYCAAERFDSNYWGQGTLVTVSSEPKSSDKTHTCPPCPAPEAEGAPSVFLFPPKPKDTLMISRTPEVTCVVVDVSHEDPEVKFNWYVDGVEVHNAKTKPREEQYNSTYRVVSVLTVLHQDWLNGKEYKCKVSNKALPSSIEKTISKAKGQPREPQVYTLPPSREEMTKNQVSLTCLVKGFYPSDIAVEWESNGQPENNYKTTPPVLDSDGSFFLYSKLTVDKSRWQQGNVFSCSVMHEALHNQYTQKSLSLSPG
modifications: conjugated to p-SCN-Bn-DOTA, chelator-antibody ratio of 3-5; lysine in FW2 (printed position 52)
notes: Humanized VHHFc conjugate
B7: 186_zu2 (Fc fusion)
chain: QVQLVESGGGLVQPGGSLRLSCAASGFDFSTYTVNWFRQAPGQGLEKVARISSTGTTTNYANSAKGRFTISRDNSKNTLYLQMNSLRAEDTAVYYCAAERFDSNYWGQGTLVTVSSEPKSSDKTHTCPPCPAPEAEGAPSVFLFPPKPKDTLMISRTPEVTCVVVDVSHEDPEVKFNWYVDGVEVHNAKTKPREEQYNSTYRVVSVLTVLHQDWLNGKEYKCKVSNKALPSSIEKTISKAKGQPREPQVYTLPPSREEMTKNQVSLTCLVKGFYPSDIAVEWESNGQPENNYKTTPPVLDSDGSFFLYSKLTVDKSRWQQGNVFSCSVMHEALHNQYTQKSLSLSPG
notes: Humanized VHH-Fc
B8: 186_zu1 conjugated to p-SCN-Bn-DOTA (Fc fusion)
chain: QVQLVESGGGLVQPGGSLRLSCAASGFDFSTYTVNWFRQAPGQGLEAVARISSTGTTTNYANSAKGRFTISRDNSKNTLYLQMNSLRAEDTAVYYCAAERFDSNYWGQGTLVTVSSEPKSSDKTHTCPPCPAPEAEGAPSVFLFPPKPKDTLMISRTPEVTCVVVDVSHEDPEVKFNWYVDGVEVHNAKTKPREEQYNSTYRVVSVLTVLHQDWLNGKEYKCKVSNKALPSSIEKTISKAKGQPREPQVYTLPPSREEMTKNQVSLTCLVKGFYPSDIAVEWESNGQPENNYKTTPPVLDSDGSFFLYSKLTVDKSRWQQGNVFSCSVMHEALHNQYTQKSLSLSPG
modifications: conjugated to p-SCN-Bn-DOTA, chelator-antibody ratio of 3-5
notes: Humanized VHHFc conjugate
B9: 126_zu1 Conjugate (Fc fusion)
chain: QVQLVESGGGLVQPGGSLRLSCAASGITFSMYSMSWFRQAPGQGLEAVAATTTFGSTNYADSVKGRFTISRDNSKNTLYLQMNSLRAEDTAVYYCAARFTSEEYWGQGTLVTVSSEPKSSDKTHTCPPCPAPEAEGAPSVFLFPPKPKDTLMISRTPEVTCVVVDVSHEDPEVKFNWYVDGVEVHNAKTKPREEQYNSTYRVVSVLTVLHQDWLNGKEYKCKVSNKALPSSIEKTISKAKGQPREPQVYTLPPSREEMTKNQVSLTCLVKGFYPSDIAVEWESNGQPENNYKTTPPVLDSDGSFFLYSKLTVDKSRWQQGNVFSCSVMHEALHNQYTQKSLSLSPG
modifications: conjugated to p-SCN-Bn-DOTA, chelator-antibody ratio of 3-5 (lysine-based conjugation)
B10: 126_zu2 Conjugate (Fc fusion)
chain: QVQLVESGGGLVQPGGSLRLSCAASGITFSMYSMSWFRQAPGQGLELVAATTTFGSTNYADSVKGRFTISRDNSKNTLYLQMNSLRAEDTAVYYCAARFTSEEYWGQGTLVTVSSEPKSSDKTHTCPPCPAPEAEGAPSVFLFPPKPKDTLMISRTPEVTCVVVDVSHEDPEVKFNWYVDGVEVHNAKTKPREEQYNSTYRVVSVLTVLHQDWLNGKEYKCKVSNKALPSSIEKTISKAKGQPREPQVYTLPPSREEMTKNQVSLTCLVKGFYPSDIAVEWESNGQPENNYKTTPPVLDSDGSFFLYSKLTVDKSRWQQGNVFSCSVMHEALHNQYTQKSLSLSPG
modifications: conjugated to p-SCN-Bn-DOTA, chelator-antibody ratio of 3-5 (lysine-based conjugation)
B11: 107_zu2 Conjugate (Fc fusion)
chain: QVQLVESGGGLVQPGGSLRLSCAASDRTFSSYAVGWFRQAPGQGLEFVAAISWNGGRTLYTDSVTGRFTISRDNSKNTLYLQMNSLRAEDTAVYYCAARPAAPTRRLEYDYWGQGTLVTVSSEPKSSDKTHTCPPCPAPEAEGAPSVFLFPPKPKDTLMISRTPEVTCVVVDVSHEDPEVKFNWYVDGVEVHNAKTKPREEQYNSTYRVVSVLTVLHQDWLNGKEYKCKVSNKALPSSIEKTISKAKGQPREPQVYTLPPSREEMTKNQVSLTCLVKGFYPSDIAVEWESNGQPENNYKTTPPVLDSDGSFFLYSKLTVDKSRWQQGNVFSCSVMHEALHNQYTQKSLSLSPG
modifications: conjugated to p-SCN-Bn-DOTA, chelator-antibody ratio of 3-5 (lysine-based conjugation)

Columns and labels:
[1] = biological target: T1, DLL3 on cells (SHP-77, NCI-H82, …); experiment: flow cytometry on SHP-77 cells, Geomeans RL1-H
[2] = biological target: T1, DLL3 on cells (SHP-77, NCI-H82, …); experiment: flow cytometry on SHP-77 cells, Geomeans RL1-H; remark: listed apart in the source
[3] = biological target: T1, DLL3 on cells (SHP-77, NCI-H82, …); experiment: flow cytometry on SHP-77 cells, Geomeans RL1-H; p-SCN-Bn-DOTA conjugate against the unconjugated VHHFc
[4] = biological target: T2, human DLL3; experiment: ELISA
[5] = biological target: T3, mouse DLL3; experiment: ELISA

EC50 (read off the curve) [1] [pM] | EC50 (read off the curve) [3] [pM] | further results | Binder
~100 | – | EC50 (read off the curve) [2]: ~100 pM | B1
– | ~200 | – | B2
– | – | binding result [2]: binds; binding result [4]: binds; binding result [5]: no binding | B3
~100 | – | – | B4
~300 | – | binding result [5]: no binding | B5
– | – | binding result [3]: binds | B6
~100 | – | binding result [5]: no binding | B7
– | ~300 | – | B8
– | – | binding result [3]: binds | B9
– | ~100 | – | B10
– | ~100 | – | B11
